The data set “cryo-EM structure” concerns the molecule itself. In words: cryo-EM structure.
The data set “SEC” concerns the molecule itself. In words: SEC. Background: Size exclusion chromatography separates by hydrodynamic size, large species first.

Residue numbers refer to the chain shown, from its start. Names may count otherwise.

B1: nuclease-deactivated AsCas12f1 variant (D225A) (enzyme)
chain: MIKVYRYEIVKPLDLDWKEFGTILRQLQQETRFALNKATQLAWEWMGFSSDYKDNHGEYPKSKDILGYTNVHGYAYHTIKTKAYRLNSGNLSQTIKRATDRFKAYQKEILRGDMSIPSYKRDIPLDLIKENISVNRMNHGDYIASLSLLSNPAKQEMNVKRKISVIIIVRGAGKTIMDRILSGEYQVSASQIIHDDRKNKWYLNISYDFEPQTRVLDLNKIMGIALGVAVAVYMAFQHTPARYKLEGGEIENFRRQVESRRISMLRQGKYAGGARGGHGRDKRIKPIEQLRDKIANFRDTTNHRYSRYIVDMAIKEGCGTIQMEDLTNIRDIGSRFLQNWTYYDLQQKIIYKAEEAGIKVIKIDPQYTSQRCSECGNIDSGNRIGQAIFKCRACGYEANADYNAARNIAIPNIDKIIAESIK
On to B1, for which the binding result in the data set “cryo-EM structure” is given as “binds”.

B2: Acidibacillus sulfuroxidans Cas12f1, wild type (enzyme)
chain: B1 chain with A225D
For orientation: stoichiometry N means a count of units in the complex or per binding partner. On to B2, for which the “stoichiometry N” value in “SEC” is 2.

Values taken from article doi:10.1101/2023.07.03.547593 (bioRxiv, 2023).
